In article PMC7978432:

Columns and labels:
[1] = molecular target: SARS-CoV-1 RBD-5GS-1TD0 (SARS-CoV-1 | not stated); test: SDS-PAGE
[2] = molecular target: SARS-CoV-2 RBD-5GS-1TD0 (SARS-CoV-2 | not stated) (UniProt P0DTC2); test: SEC
[3] = molecular target: SARS-CoV-2 RBD-5GS-1TD0 (SARS-CoV-2 | not stated) (UniProt P0DTC2); test: SDS-PAGE

Substance	stoichiometry N [1]	stoichiometry N [2]	stoichiometry N [3]
SARS-CoV-1 RBD-5GS-1TD0	3	–	–
SARS-CoV-2 RBD-5GS-1TD0 (from UniProt P0DTC2 330-532)	–	3	3
